Patent US20210147523A1 (TEIJIN PHARMA, published 2021)

T1: Mutant 1 of human SPNS2 (FLAG tag inserted in extracellular loop 1) (human, UniProt Q8IVW8 1-549)
T1 construct: on HEK293 cells; also called extracellular loop 1 mutant
T1 sequence: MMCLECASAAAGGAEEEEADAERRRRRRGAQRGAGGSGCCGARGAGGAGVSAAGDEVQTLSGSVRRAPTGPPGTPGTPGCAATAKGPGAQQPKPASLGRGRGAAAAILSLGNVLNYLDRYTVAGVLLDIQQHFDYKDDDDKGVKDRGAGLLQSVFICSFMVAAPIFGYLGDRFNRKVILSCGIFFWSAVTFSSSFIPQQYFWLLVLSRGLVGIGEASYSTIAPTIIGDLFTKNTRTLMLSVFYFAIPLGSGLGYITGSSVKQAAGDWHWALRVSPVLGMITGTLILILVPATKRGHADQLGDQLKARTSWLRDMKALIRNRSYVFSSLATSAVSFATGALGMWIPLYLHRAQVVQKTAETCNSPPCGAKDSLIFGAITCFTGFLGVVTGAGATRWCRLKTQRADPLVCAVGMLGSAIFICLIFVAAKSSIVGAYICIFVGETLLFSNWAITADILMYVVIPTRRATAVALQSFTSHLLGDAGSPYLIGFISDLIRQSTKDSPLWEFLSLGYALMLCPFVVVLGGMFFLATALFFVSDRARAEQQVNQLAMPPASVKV

T2: Mutant 2 of human SPNS2 (FLAG tag inserted in extracellular loop 5) (human, UniProt Q8IVW8 1-549)
T2 construct: on HEK293 cells; also called extracellular loop 5 mutant
T2 sequence: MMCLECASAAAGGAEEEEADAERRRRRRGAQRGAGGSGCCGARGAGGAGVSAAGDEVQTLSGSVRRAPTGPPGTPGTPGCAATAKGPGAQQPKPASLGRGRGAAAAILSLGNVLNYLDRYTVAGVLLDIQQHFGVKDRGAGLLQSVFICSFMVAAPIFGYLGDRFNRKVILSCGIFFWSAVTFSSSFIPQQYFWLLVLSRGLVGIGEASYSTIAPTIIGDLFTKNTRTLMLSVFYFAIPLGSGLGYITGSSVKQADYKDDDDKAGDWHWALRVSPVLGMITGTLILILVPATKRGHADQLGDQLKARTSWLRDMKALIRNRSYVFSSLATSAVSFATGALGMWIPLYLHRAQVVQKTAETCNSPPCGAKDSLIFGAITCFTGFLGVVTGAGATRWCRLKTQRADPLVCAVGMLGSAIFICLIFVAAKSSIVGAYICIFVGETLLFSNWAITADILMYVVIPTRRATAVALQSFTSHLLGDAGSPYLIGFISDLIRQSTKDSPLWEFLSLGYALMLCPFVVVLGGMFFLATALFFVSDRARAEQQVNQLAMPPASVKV

T3: Mutant 3 of human SPNS2 (FLAG tag inserted in extracellular loop 7) (human, UniProt Q8IVW8 1-549)
T3 construct: on HEK293 cells; also called extracellular loop 7 mutant
T3 sequence: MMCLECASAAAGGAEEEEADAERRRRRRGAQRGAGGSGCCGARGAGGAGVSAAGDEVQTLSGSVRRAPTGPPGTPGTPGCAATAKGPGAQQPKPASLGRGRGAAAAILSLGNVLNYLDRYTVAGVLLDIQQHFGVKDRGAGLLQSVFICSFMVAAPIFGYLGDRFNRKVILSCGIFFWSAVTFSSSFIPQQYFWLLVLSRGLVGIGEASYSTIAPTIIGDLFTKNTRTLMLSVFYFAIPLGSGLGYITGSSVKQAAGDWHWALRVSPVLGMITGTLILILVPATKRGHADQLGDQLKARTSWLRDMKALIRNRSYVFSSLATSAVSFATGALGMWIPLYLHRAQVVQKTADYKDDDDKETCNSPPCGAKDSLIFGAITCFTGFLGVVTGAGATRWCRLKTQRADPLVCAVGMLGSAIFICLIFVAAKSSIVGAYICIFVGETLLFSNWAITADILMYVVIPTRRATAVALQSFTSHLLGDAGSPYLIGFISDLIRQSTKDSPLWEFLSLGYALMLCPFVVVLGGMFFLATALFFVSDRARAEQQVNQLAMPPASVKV

T4: Mutant 4 of human SPNS2 (FLAG tag inserted in extracellular loop 11) (human, UniProt Q8IVW8 1-549)
T4 construct: on HEK293 cells; also called extracellular loop 11 mutant
T4 sequence: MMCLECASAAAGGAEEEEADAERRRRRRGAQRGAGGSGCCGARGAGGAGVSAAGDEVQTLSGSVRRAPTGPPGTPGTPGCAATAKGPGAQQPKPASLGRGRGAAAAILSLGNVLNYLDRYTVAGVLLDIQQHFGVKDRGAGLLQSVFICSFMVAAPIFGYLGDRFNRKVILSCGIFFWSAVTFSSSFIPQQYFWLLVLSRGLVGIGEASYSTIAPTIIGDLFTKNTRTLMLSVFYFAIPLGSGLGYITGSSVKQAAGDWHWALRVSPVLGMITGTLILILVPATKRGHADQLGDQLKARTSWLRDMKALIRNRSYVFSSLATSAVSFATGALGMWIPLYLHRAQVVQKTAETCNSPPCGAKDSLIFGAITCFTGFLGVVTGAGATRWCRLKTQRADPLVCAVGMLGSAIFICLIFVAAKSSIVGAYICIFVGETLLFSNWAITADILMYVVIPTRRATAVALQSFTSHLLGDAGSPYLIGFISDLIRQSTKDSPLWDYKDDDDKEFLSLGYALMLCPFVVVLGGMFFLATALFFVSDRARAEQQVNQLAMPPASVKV

B1: 93-1310F (antibody, IgG2b, V domains shown)
VH: EVQLVETGGGLVQPGSSLKLSCATSGFTFSDTWMSWVRQAPGKGLEWVALIKDKNSNYEANYAESVKGRFTISRDDSKRRVYLQMFTLRDQDTATYYCTSHEDFYYYSSYYFDYWGHGVMVTVSS
VL: DIVLTQSPATLSVTPGESVSLSCRASQGISTSIHWYQQKSNGSPRLLIKYASQSISGIPSRFSGSGSGTDFTLRINRVESEDFSVYYCQQTYSLPLTFGSGTRLEIKR
B2: 82-1109A (antibody, IgG2b, V domains shown)
VH: QVQLQQSGVELAKPGSSVKISCKASGNTFTSNYITWIKQTPGQGLEYIGYINTGSGKTYYNEKFKGKATLTADKSSSTAFMQLSSLTPDDSAVYFCASLTGVDYFDDWGQGVMVTVSS
VL: DDIVLTQSPALAPSLGQRATISCRASQSVRMSGYNLMHWYQQKPGQQPKLLIYDASKLASGIPARFSGSGSGTDFTLTIDPVQSDDIATYYCQQSKDDPYTFGAGTKLELRR
B3: 83-1110B (antibody, IgG2b, V domains shown)
VH: EVQLQQSGPEFVRPGTSVKFSCKVSGGSITSYFIHFVKQRPGQGLEWIGKIDPEDDSTKYGEKFKNKATLTADTSSNTAFLKLSSLTSEDTAIYFCTTLTGLDYWGQGVMVTVSS
VL: DIQMTQSPPVLSAAVGDRVTLSCKASRSLNKNLDWYQQKHGETPKLLIYHTHNLQTGIPSRFSGSGSDTDYTLTISSLQTEDVATYYCYQYHSGWTFGGGTRLELRR
B4: 33-0503E (antibody, IgG2b, V domains shown)
VH: EVQLVESGGGLVRPGGSMKLSCGASGFIFDNYYMTWVRQAPTKGLEWVASISSSGGNTYYRDSVRGRFTISRDNAGNTLSLQMGSLRAEDTATYHCAKEGYRGRYFDYWGQGVMVTVSS
VL: QVVLTQPNSVSTNLGSTVKLSCKRTTGNIGSNYVNWYQQHEGRSPTTMIYRDDERPDGVPDRFSGSIDRSSNSALLTINNVQTEDEAEYFCQSYSSGIIFGGGTKLTVL
B5: 49-0703G (antibody, IgG2b, V domains shown)
VH: EVQLVESGGGLVQPGRSMKLSCAASGFTFSNHYMAWVRQAPTKGLEWVASISTGGGNTYYRDSVKGRFTISRDNAKSTLYLQMDSLRSEDTATYYCARQDYSNYMGGFAYWGQGTLVTVSS
VL: QFVLTQPNSVSTNLGSTVKLSCKRSTGNIGNNYVNWYQQYEGRSPTTMIYRDDERPDGVPDRFSGSIDRSSNSALLTINNVQTEDEADYFCQSFSNGMFIFAGGTQLTVL
B6: 94-1311E (antibody, V domains shown)
VH: EVQLQQSGAGLVRPRTSVRLSCKISGDSITAYYVHFVKQRPGQGLEWIGRIDPEDDSTKYSEKFKNKATLTADVSSSTAYLILSSLTSDDSATYFCSTLTGLDYWGQGVMVTVSS
VL: DIQMTQSPPVLSASVGDRVTLSCKASQSVHNKLDWYQQKHGEAPKLLIYYTHNLQTGIPSRFSGSGSGSDYTLTISSLRAEDVATYYCFQYYSGWTFGGGTKLEMKR

Columns and labels:
Assay in all cases: flow cytometry, FLAG-insertion mutant
[1] = molecular target: T1, Mutant 1 of human SPNS2 (FLAG tag …)
Protocol: (§1) After the lipofection, the HEK 293 cells cultivated overnight were recovered from the culture dishes, and reacted with a cell staining buffer (BioLegend, 420201) containing an anti-FLAG antibody (Sigma-Aldrich, F1804) and an anti-SPNS2 antibody each in a volume of 20 μg/mL for 30 minutes at room temperature. After washing with a cell staining buffer one time, the anti-FLAG antibody was detected with an anti-mouse IgG-Alexa 647 conjugate antibody, and the anti-SPNS2 antibody was detected with an anti-rat IgG-FITC conjugate antibody with flow cytometer BD LSR Fortessa (Becton Dickinson). The binding ability to each mutant was evaluated with the ratio of the FITC-positive cell rate to the Alexa 647-positive cell rate. In Table 7, symbol (+) indicates a ratio of less than 0.1, symbol (±) indicates a ratio of 0.1 or more and less than 0.5, and symbol (−) indicate a ratio of 0.5 or more.

[2] = molecular target: T2, Mutant 2 of human SPNS2 (FLAG tag …)
Protocol: as §1

[3] = molecular target: T3, Mutant 3 of human SPNS2 (FLAG tag …)
Protocol: as §1

[4] = molecular target: T4, Mutant 4 of human SPNS2 (FLAG tag …)
Protocol: as §1

Binder | FITC+/Alexa 647+ cell rate ratio [1] | FITC+/Alexa 647+ cell rate ratio [2] | FITC+/Alexa 647+ cell rate ratio [3] | FITC+/Alexa 647+ cell rate ratio [4]
B1 | < 0.1 ratio | ≥ 0.5 ratio | ≥ 0.5 ratio | ≥ 0.5 ratio
B2 | ≥ 0.5 ratio | ≥ 0.5 ratio | < 0.1 ratio | < 0.1 ratio
B3 | < 0.1 ratio | < 0.1 ratio | ≥ 0.5 ratio | ≥ 0.5 ratio
B4 | < 0.1 ratio | < 0.1 ratio | ≥ 0.5 ratio | ≥ 0.5 ratio
B5 | < 0.1 ratio | < 0.1 ratio | ≥ 0.5 ratio | ≥ 0.5 ratio
B6 | < 0.1 ratio | < 0.1 ratio | ≥ 0.5 ratio | ≥ 0.5 ratio
